# Laboratory results taken from PMC11060673.
# Target: His-LHP1 (recombinant Prunus mume Like Heterochromatin Protein 1) (Prunus mume (Japanese apricot))
# Test: SPR; BIAcore X-100; PmLHP1 immobilized on a CM5 sensor chip by amine coupling; target protein diluted in a gradient; steady-state affinity model
substance,measurement,value
Gst-AGL24 (recombinant Prunus mume AGAMOUS-like 24) (natural protein),Kd,20.6 µM
